± gives the uncertainty stated by the source.

This is an account of results in the Human Domainome abundance scans (Beltran et al. 2025).

The chains are these.
B1: Lysine-specific demethylase 2B, residues 656 to 722; numbered along this chain, Q8NHM5 (parent)
chain: LPHTAVCLVCGEAGKEDTVEEEEGKFNLMLMECSICNEIIHPGCLKIKESEGVVNDELPNCWECPKC

In this data set the parent is B1. The data set can be described thus: abundance fitness (aPCA) (normalised: wild type 0, dead -1); higher = more abundant; growth selection in yeast, the domain comes from the species named. The following applies: Homo sapiens.
With LPHTAVCLVCGEAGKECTVEEEEGKFNLMLMECSICNEIIHPGCLKIKESEGVVNDELPNCWECPKC [D17C], the abundance fitness amounted to 0.039 ± 0.17. For LPHTAVCLVCGEAGKEMTVEEEEGKFNLMLMECSICNEIIHPGCLKIKESEGVVNDELPNCWECPKC [D17M] the value was 0.392 ± 0.15; for LPHTAVCLVCGEAGKEATVEEEEGKFNLMLMECSICNEIIHPGCLKIKESEGVVNDELPNCWECPKC [D17A], -0.173 ± 0.092; for LPHTAVCLVCGEAGKEETVEEEEGKFNLMLMECSICNEIIHPGCLKIKESEGVVNDELPNCWECPKC [D17E], -0.069 ± 0.081. For LPHTAVCLVCGEAGKEHTVEEEEGKFNLMLMECSICNEIIHPGCLKIKESEGVVNDELPNCWECPKC [D17H] the value was 0.099 ± 0.17.

For the variant LPHTAVCLVCGEAGKEPTVEEEEGKFNLMLMECSICNEIIHPGCLKIKESEGVVNDELPNCWECPKC [D17P], the abundance fitness was -0.168 ± 0.15. Turning to LPHTAVCLVCGEAGKETTVEEEEGKFNLMLMECSICNEIIHPGCLKIKESEGVVNDELPNCWECPKC [D17T], the abundance fitness is -0.194 ± 0.07. The same measure for LPHTAVCLVCGEAGKEITVEEEEGKFNLMLMECSICNEIIHPGCLKIKESEGVVNDELPNCWECPKC [D17I]: 0.068 ± 0.22; for LPHTAVCLVCGEAGKESTVEEEEGKFNLMLMECSICNEIIHPGCLKIKESEGVVNDELPNCWECPKC [D17S]: -0.083 ± 0.081; for LPHTAVCLVCGEAGKELTVEEEEGKFNLMLMECSICNEIIHPGCLKIKESEGVVNDELPNCWECPKC [D17L]: -0.369 ± 0.09. Regarding LPHTAVCLVCGEAGKEQTVEEEEGKFNLMLMECSICNEIIHPGCLKIKESEGVVNDELPNCWECPKC [D17Q], the abundance fitness was -0.091 ± 0.12. LPHTAVCLVCGEAGKEVTVEEEEGKFNLMLMECSICNEIIHPGCLKIKESEGVVNDELPNCWECPKC [D17V]: the abundance fitness was -0.088 ± 0.062. For LPHTAVCLVCGEAGKEKTVEEEEGKFNLMLMECSICNEIIHPGCLKIKESEGVVNDELPNCWECPKC [D17K] the value was -0.174 ± 0.16.

For the variant LPHTAVCLVCGEAGKEYTVEEEEGKFNLMLMECSICNEIIHPGCLKIKESEGVVNDELPNCWECPKC [D17Y], the abundance fitness was -0.315 ± 0.13.

As for LPHTAVCLVCGEAGKEFTVEEEEGKFNLMLMECSICNEIIHPGCLKIKESEGVVNDELPNCWECPKC [D17F], the abundance fitness was -0.017 ± 0.16.

LPHTAVCLVCGEAGKERTVEEEEGKFNLMLMECSICNEIIHPGCLKIKESEGVVNDELPNCWECPKC [D17R]: the abundance fitness is -0.066 ± 0.082. As to LPHTAVCLVCGEAGKENTVEEEEGKFNLMLMECSICNEIIHPGCLKIKESEGVVNDELPNCWECPKC [D17N], the abundance fitness is -0.035 ± 0.31. The same measure for LPHTAVCLVCGEAGKEWTVEEEEGKFNLMLMECSICNEIIHPGCLKIKESEGVVNDELPNCWECPKC [D17W]: -0.553 ± 0.12; for LPHTAVCLVCGEAGKEGTVEEEEGKFNLMLMECSICNEIIHPGCLKIKESEGVVNDELPNCWECPKC [D17G]: 0.104 ± 0.091; for LPHTAVCLVCGEAGKEDEVEEEEGKFNLMLMECSICNEIIHPGCLKIKESEGVVNDELPNCWECPKC [T18E]: -0.471 ± 0.17. For LPHTAVCLVCGEAGKEDFVEEEEGKFNLMLMECSICNEIIHPGCLKIKESEGVVNDELPNCWECPKC [T18F] the value was -0.113 ± 0.11. In the case of LPHTAVCLVCGEAGKEDPVEEEEGKFNLMLMECSICNEIIHPGCLKIKESEGVVNDELPNCWECPKC [T18P], the abundance fitness is -0.268 ± 0.13.

For LPHTAVCLVCGEAGKEDNVEEEEGKFNLMLMECSICNEIIHPGCLKIKESEGVVNDELPNCWECPKC [T18N], the abundance fitness is -0.026 ± 0.27. For LPHTAVCLVCGEAGKEDYVEEEEGKFNLMLMECSICNEIIHPGCLKIKESEGVVNDELPNCWECPKC [T18Y] the value was -0.427 ± 0.29. For LPHTAVCLVCGEAGKEDMVEEEEGKFNLMLMECSICNEIIHPGCLKIKESEGVVNDELPNCWECPKC [T18M] the value was -0.092 ± 0.18; for LPHTAVCLVCGEAGKEDWVEEEEGKFNLMLMECSICNEIIHPGCLKIKESEGVVNDELPNCWECPKC [T18W], -0.331 ± 0.12; for LPHTAVCLVCGEAGKEDDVEEEEGKFNLMLMECSICNEIIHPGCLKIKESEGVVNDELPNCWECPKC [T18D], -0.527 ± 0.23. For LPHTAVCLVCGEAGKEDKVEEEEGKFNLMLMECSICNEIIHPGCLKIKESEGVVNDELPNCWECPKC [T18K] the value was -0.131 ± 0.15. As to LPHTAVCLVCGEAGKEDQVEEEEGKFNLMLMECSICNEIIHPGCLKIKESEGVVNDELPNCWECPKC [T18Q], the abundance fitness was -0.062 ± 0.095.

Consider LPHTAVCLVCGEAGKEDGVEEEEGKFNLMLMECSICNEIIHPGCLKIKESEGVVNDELPNCWECPKC [T18G], for which the abundance fitness was -0.399 ± 0.088. For LPHTAVCLVCGEAGKEDCVEEEEGKFNLMLMECSICNEIIHPGCLKIKESEGVVNDELPNCWECPKC [T18C] the value was -0.213 ± 0.14; for LPHTAVCLVCGEAGKEDRVEEEEGKFNLMLMECSICNEIIHPGCLKIKESEGVVNDELPNCWECPKC [T18R], -0.188 ± 0.081; for LPHTAVCLVCGEAGKEDLVEEEEGKFNLMLMECSICNEIIHPGCLKIKESEGVVNDELPNCWECPKC [T18L], -0.042 ± 0.094. For LPHTAVCLVCGEAGKEDIVEEEEGKFNLMLMECSICNEIIHPGCLKIKESEGVVNDELPNCWECPKC [T18I] the value was -0.14 ± 0.11; for LPHTAVCLVCGEAGKEDVVEEEEGKFNLMLMECSICNEIIHPGCLKIKESEGVVNDELPNCWECPKC [T18V], -0.569 ± 0.15. For LPHTAVCLVCGEAGKEDAVEEEEGKFNLMLMECSICNEIIHPGCLKIKESEGVVNDELPNCWECPKC [T18A] the value was -0.514 ± 0.13. On to LPHTAVCLVCGEAGREDTVEEEEGKFNLMLMECSICNEIIHPGCLKIKESEGVVNDELPNCWECPKC [K15R], for which the abundance fitness is -0.355 ± 0.11.

LPHTAVCLVCGEAGGEDTVEEEEGKFNLMLMECSICNEIIHPGCLKIKESEGVVNDELPNCWECPKC [K15G]: the abundance fitness is -0.206 ± 0.1. The same measure for LPHTAVCLVCGEAGDEDTVEEEEGKFNLMLMECSICNEIIHPGCLKIKESEGVVNDELPNCWECPKC [K15D]: -1.01 ± 0.29; for LPHTAVCLVCGEAGPEDTVEEEEGKFNLMLMECSICNEIIHPGCLKIKESEGVVNDELPNCWECPKC [K15P]: -0.609 ± 0.11.
